Data taken from US20160272948A1.

Legend:
[1] = molecular target: 16055 NFL TD8 CC trimer (HIV-1 strain 16055 (subtype C)); assay: ELISA, OD 450nm, mAb 5 to 0.00032 ug/mL on the trimer, without sCD4
[2] = molecular target: 16055 NFL TD8 trimer (HIV-1 strain 16055 (subtype C)); assay: as above
[3] = molecular target: 16055 NFL TD8 CC trimer (HIV-1 strain 16055 (subtype C)); assay: ELISA, OD 450nm; antibody titrated on the captured trimer
[4] = molecular target: JRFL NFL TD15 CC trimer (HIV-1 strain JRFL (subtype B)); assay: as above
[5] = molecular target: 16055 NFL TD8 trimer (HIV-1 strain 16055 (subtype C)); assay: BLI (Octet), series from 200nM, 1:1 global fit; paragraph 228: IgG on anti-human IgG Fc sensors, trimer as analyte
[6] = molecular target: JRFL NFL TD15 trimer (HIV-1 strain JRFL (subtype B)); assay: as above
[7] = molecular target: 16055 NFL TD8 trimer (HIV-1 strain 16055 (subtype C)); assay: ELISA, OD 450 nm; His-tagged trimer captured by anti-His mAb on the plate, antibody titrated
[8] = molecular target: JRFL NFL TD15 trimer (HIV-1 strain JRFL (subtype B)); assay: as above
[9] = molecular target: JRFL NFL TD15 trimer (HIV-1 strain JRFL (subtype B)); assay: BLI (Octet), IgG on anti-human Fc sensors, trimer as analyte, global fit 1:1
JRFL SOSIP TD [10] = assay: BLI; IgG immobilized on a bio-sensor, trimer as analyte in solution, series from 400nM
[11] = molecular target: 16055 NFL TD8 trimer (HIV-1 strain 16055 (subtype C)); assay: as above
[12] = molecular target: 16055 NFL TD8 CC trimer (HIV-1 strain 16055 (subtype C)); assay: BLI; IgG immobilized on a bio-sensor, trimer as analyte in solution, series from 200nM
Δ276 Δ301 Δ360 Δ463 [13] = assay: ELISA, OD 450 nm
[14] = molecular target: 16055 NFL TD CC GL2 trimer with N332 restored; assay: ELISA, OD 450 nm
Δ276 Δ360 Δ463 [15] = assay: ELISA, OD 450 nm
[16] = molecular target: 16055 NFL TD8 trimer (HIV-1 strain 16055 (subtype C)); assay: ELISA, OD 450nm; antibody titrated on the captured trimer
[17] = molecular target: JRFL NFL TD15 trimer (HIV-1 strain JRFL (subtype B)); assay: as above
Δ276 Δ301 Δ360 Δ463 [18] = assay: ELISA, His-captured trimer, OD 450 nm
[19] = molecular target: 16055 NFL TD CC GL2 trimer with N332 restored; assay: ELISA, His-captured trimer, OD 450 nm
Δ276 Δ360 Δ463 [20] = assay: ELISA, His-captured trimer, OD 450 nm
Δ276 Δ301 Δ360 Δ463 [21] = assay: ELISA, trimer on the plate without His-capture (panel 'plate 2G12'), OD 450 nm
[22] = molecular target: 16055 NFL TD CC GL2 trimer with N332 restored; assay: as above
Δ276 Δ360 Δ463 [23] = assay: as above
[24] = molecular target: 16055 NFL TD8 trimer (HIV-1 strain 16055 (subtype C)); assay: BLI (Octet), IgG on anti-human Fc sensors, trimer as analyte, global fit 1:1
JRFL SOSIP TD [25] = assay: BLI; VRC03 Fab as analyte in solution (series from 400nM), trimer immobilized on the sensor
[26] = molecular target: 16055 NFL TD8 CC trimer (HIV-1 strain 16055 (subtype C)); assay: BLI; VRC03 Fab as analyte in solution (series from 6400nM), trimer immobilized on the sensor
[27] = molecular target: 16055 NFL TD8 trimer (HIV-1 strain 16055 (subtype C)); assay: as above
16055 NFL TD GL L568G = assay: ELISA, OD 450nm, mAb 5 to 0.00032 ug/mL on the trimer
[28] = molecular target: BG505 NFL CC trimer (HIV-1 strain BG505 (subtype A)); assay: ELISA, OD 450nm; antibody titrated on the captured trimer

PGT145 (antibody)
EC50 (read off the curve) [1]: 0.07 µg/mL | EC50 (read off the curve) [2]: 0.07 µg/mL | EC50 (read off the curve) [3]: 0.04 µg/mL | EC50 (read off the curve) [4]: 0.04 µg/mL | Kd [5]: 40 nM | koff [5]: 0.0044 s⁻¹ | kon [5]: 110000 M⁻¹ s⁻¹ | koff [6]: 0.00067 s⁻¹ | kon [6]: 120000 M⁻¹ s⁻¹ | EC50 (read off the curve) [7]: 0.1 µg/mL | EC50 (read off the curve) [8]: 0.2 µg/mL | Kd [9]: 5 nM | Kd (JRFL SOSIP TD [10]): 4.37 nM | Kd [11]: 40.3 nM | Kd [12]: 33.2 nM | EC50 (read off the curve) (Δ276 Δ301 Δ360 Δ463 [13]): 0.01 µg/mL | EC50 (read off the curve) [14]: 0.02 µg/mL | EC50 (read off the curve) (Δ276 Δ360 Δ463 [15]): 0.01 µg/mL

8ANC134 (antibody)
EC50 (read off the curve) (Δ276 Δ301 Δ360 Δ463 [13]): 0.03 µg/mL | EC50 (read off the curve) [14]: 0.1 µg/mL | EC50 (read off the curve) (Δ276 Δ360 Δ463 [15]): 0.03 µg/mL

PGT121 (antibody)
EC50 (read off the curve) [16]: 0.07 µg/mL | EC50 (read off the curve) [17]: 0.2 µg/mL

VRC13 (antibody)
EC50 (read off the curve) [14]: 0.1 µg/mL

VRC18b (antibody)
EC50 (read off the curve) (Δ276 Δ301 Δ360 Δ463 [13]): 0.04 µg/mL | EC50 (read off the curve) (Δ276 Δ360 Δ463 [15]): 0.04 µg/mL

VRC16 (antibody)
EC50 (read off the curve) (Δ276 Δ301 Δ360 Δ463 [13]): 0.03 µg/mL | EC50 (read off the curve) [14]: 0.05 µg/mL | EC50 (read off the curve) (Δ276 Δ360 Δ463 [15]): 0.03 µg/mL

VRC05 (antibody)
EC50 (read off the curve) [14]: 0.1 µg/mL

HJ16 (antibody)
EC50 (read off the curve) [14]: 0.02 µg/mL

2G12 (antibody)
EC50 (read off the curve) (Δ276 Δ301 Δ360 Δ463 [18]): 0.1 µg/mL | EC50 (read off the curve) [19]: 0.1 µg/mL | EC50 (read off the curve) (Δ276 Δ360 Δ463 [20]): 0.1 µg/mL | EC50 (read off the curve) (Δ276 Δ301 Δ360 Δ463 [21]): 0.04 µg/mL | EC50 (read off the curve) [22]: 0.04 µg/mL | EC50 (read off the curve) (Δ276 Δ360 Δ463 [23]): 0.04 µg/mL

PGT128 (antibody)
EC50 (read off the curve) [16]: 0.05 µg/mL | EC50 (read off the curve) [17]: 0.05 µg/mL

VRC03 (antibody)
EC50 (read off the curve) [4]: 0.2 µg/mL | EC50 (read off the curve) [8]: 0.2 µg/mL | EC50 (read off the curve) (Δ276 Δ301 Δ360 Δ463 [13]): 0.04 µg/mL | EC50 (read off the curve) (Δ276 Δ360 Δ463 [15]): 0.04 µg/mL

PGDM1400 (antibody)
EC50 (read off the curve) [3]: 0.1 µg/mL | koff [5]: 0.0015 s⁻¹ | kon [5]: 73000 M⁻¹ s⁻¹ | Kd [6]: 36 nM | koff [6]: 0.0011 s⁻¹ | kon [6]: 31000 M⁻¹ s⁻¹ | EC50 (read off the curve) [7]: 0.06 µg/mL | Kd [24]: 21 nM | Kd (JRFL SOSIP TD [10]): 2840 nM | Kd [11]: 21.5 nM | Kd [12]: 21.7 nM

8ANC131 (antibody)
EC50 (read off the curve) (Δ276 Δ301 Δ360 Δ463 [13]): 0.03 µg/mL | EC50 (read off the curve) [14]: 0.1 µg/mL | EC50 (read off the curve) (Δ276 Δ360 Δ463 [15]): 0.03 µg/mL

VRC06b (antibody)
EC50 (read off the curve) [4]: 0.2 µg/mL | EC50 (read off the curve) [8]: 0.08 µg/mL | EC50 (read off the curve) (Δ276 Δ301 Δ360 Δ463 [13]): 0.03 µg/mL | EC50 (read off the curve) [14]: 0.1 µg/mL | EC50 (read off the curve) (Δ276 Δ360 Δ463 [15]): 0.03 µg/mL

VRC03 Fab
Kd (JRFL SOSIP TD [25]): 13.3 nM | Kd [26]: 606 nM | Kd [27]: 168 nM

PG16 (antibody)
EC50 (read off the curve) (16055 NFL TD GL L568G): 0.07 µg/mL | Kd [5]: 29 nM | koff [5]: 0.0017 s⁻¹ | kon [5]: 58000 M⁻¹ s⁻¹ | Kd [6]: 41 nM | koff [6]: 0.0032 s⁻¹ | kon [6]: 77000 M⁻¹ s⁻¹ | EC50 (read off the curve) [7]: 0.09 µg/mL | EC50 (read off the curve) [8]: 0.03 µg/mL | Kd (JRFL SOSIP TD [10]): 42.4 nM | Kd [11]: 29.6 nM | Kd [12]: 26.7 nM

VRC01 (antibody)
EC50 (read off the curve) [28]: 0.2 µg/mL | EC50 (read off the curve) (Δ276 Δ301 Δ360 Δ463 [13]): 0.03 µg/mL | EC50 (read off the curve) [14]: 0.1 µg/mL | EC50 (read off the curve) (Δ276 Δ360 Δ463 [15]): 0.03 µg/mL

CD4-Ig2 (Fc fusion)
EC50 (read off the curve) (Δ276 Δ301 Δ360 Δ463 [13]): 0.04 µg/mL | EC50 (read off the curve) [14]: 0.04 µg/mL | EC50 (read off the curve) (Δ276 Δ360 Δ463 [15]): 0.04 µg/mL
